Molecular target: the molecule itself
Assay: FTIR spectroscopy; peptides at 1 and 0.1 mg/ml in PBS, 8 μl dried as thin films on the ATR surface; spectra 1800-1500 cm^-1; peaks at 1621 and 1695 cm^-1 read as antiparallel β-sheet assembly

B1: synthetic peptide P1 (peptide)
peptide: PARKARAATAATAATAATAATAAT
notes: 24-amino acid synthetic peptide designed with repeated motifs of the Ixodes tick antifreeze glycoprotein (IAFGP); Not the streptococcal adhesin P1 (AgI/II, PAc); also called antivirulence peptide P1; source: synthetic peptide (Genscript, >80% purity)
binding result: binds
